This series can be described thus: protein stability index of a GFP-peptide fusion (GPS, HEK-293T) (PSI 1-6); higher = more stable.
[1] abbreviates: treatment: DMSO, c terminus: native.
[2] abbreviates: treatment: MLN4924 1 uM, 8 h, c terminus: native.
The mark [3] stands for this setting: treatment: DMSO, c terminus: a fixed tail appended.
The mark [4] stands for this setting: treatment: MLN4924 1 uM, 8 h, c terminus: a fixed tail appended.

The results in this text go back to the supplement of paper PMC10567573.

± gives the standard deviation.
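Note: 24-mer peptide tiles fused after GFP, lentivirally expressed, FACS-sorted into six equal bins by GFP/DsRed ratio, decoded by Illumina sequencing, PSI is the read-weighted mean bin number.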

AAAHASVDIKDVLDFYKQWKEIG [SMG5]: the protein stability index under setting [1] came to 3.45 ± 0.3 and the protein stability index under setting [2] turned out to be 3.54 ± 0.55.
For AADGETTATEELEKTQDDLMKHQT [EPB41L3], the protein stability index is 5.62 ± 0.14 under setting [3] and 5.64 ± 0.14 under setting [4].
AAEERALFTDRMATRSTTQSNRTS [WEE1] returned a protein stability index under setting [3] of 5.1 ± 0.2 and a protein stability index under setting [4] of 5.17 ± 0.21.
Take AAEMYQRGRAVLREAGFHQYEVSN [RSAD1]: the protein stability index reads like this: under setting [3], 3.32 ± 0.3; under setting [4], 3.29 ± 0.24.
AAKARDTGILIFAIGVGQVDFNTL [MATN2]: the protein stability index is, setting by setting: under setting [3], 2.58 ± 1.1; under setting [4], 3.16 ± 1.
On to AAPFRFVARPVRFPREHQFFEDGD [ZNF511], for which the protein stability index under setting [3] amounted to 2.85 ± 0.56 and the protein stability index under setting [4] worked out at 3.28 ± 0.62.
As to AARLLRALSSFREESRFCDAHLVL [GAN], the protein stability index by setting is: under setting [3], 2.41 ± 0.65; under setting [4], 2.02 ± 0.27.
Turning to AATKQEGMEGLLGTLVQLLGSDDI [CTNNB1], the protein stability index reads like this: under setting [3], 2.63 ± 0.23; under setting [4], 2.71 ± 0.58.
In the same order, the values of ACRVTELQQQPLCTSVNTIYDNAV [LRRC59] are 2.68 ± 0.4 and 2.61 ± 0.25.
With ACSAWLCPGLRLPGSLAGRRAGPA [AUH], the protein stability index under setting [3] came to 2.2 ± 0.31 and the protein stability index under setting [4] worked out at 2.04 ± 0.9.
Taken in the same sequence, the figures for ADAFHHQVHDDDLLSSSEEECKDR [EMD] were 5.66 ± 0.14 and 5.66 ± 0.17.
As for ADYSAALDPAYTTLEFENVQVLTM [HNF4A], the protein stability index is 2.75 ± 0.25 under setting [3] and 2.39 ± 0.32 under setting [4].
For the sequence AEEAEDHGRIPDPDDFVPPVPPPS [FAM189A2], the protein stability index is, setting by setting: under setting [3], 5.52 ± 0.24; under setting [4], 5.51 ± 0.06.
In the case of AEFIESGQYRANEGTSSIVMEIQK [TAF7L], the protein stability index reads like this: under setting [3], 4.23 ± 0.24; under setting [4], 4.45 ± 0.32.
In the same order, the values of AEGDSEGLSQGLVDREKGLSAEPG [CHGA] are 5.49 ± 0.23 and 5.49 ± 0.4.
With AEMSRVSIRILDELVLPFQELQID [HNF4A], the protein stability index is, setting by setting: under setting [3], 2.67 ± 0.35; under setting [4], 2.74 ± 0.23.
In the same order, the values of AERLRAELLDLKAGGFSIRNQKGE [MYORG] are 4.1 ± 0.26 and 4.24 ± 0.29.
Take AEVWVSGTIFIRNVLLFKKQNPGK [RETREG3]: the protein stability index under setting [3] is 2.68 ± 0.54 and the protein stability index under setting [4] was found to be 2.49 ± 0.35.
Taken in the same sequence, the figures for AFVVYLETETLVTREAVTEILGIE [TSN] were 2.58 ± 0.6 and 2.52 ± 0.7.
Taken in the same sequence, the figures for AGDRFLEALGFSWHDTCFVCAICQ [PDLIM7] were 2.32 ± 0.4 and 2.52 ± 0.28.
Taken in the same sequence, the figures for AGEDNDDLIDNLKEAQYIRTERVE [PCMTD1] were 5.08 ± 0.18 and 5.15 ± 0.26.
AGFSPDCIMDDAINILQNEKSHQV [INTS4]: the protein stability index was 4.13 ± 0.12 under setting [3] and 4.17 ± 0.18 under setting [4].
Take AGSCRLGSAGGLGSTLGGSSYSSC [KRT17]: the protein stability index is, setting by setting: under setting [3], 2.22 ± 0.3; under setting [4], 2.27 ± 0.31.
The sequence AGVLTIALPVPVIVSNFNYFYHRE [KCNA4] displayed a protein stability index under setting [3] of 2.6 ± 0.21 and a protein stability index under setting [4] of 2.84 ± 0.79.
As to AIGGTYLGPAFRGLKGRTLYPAVS [SPSB2], the protein stability index worked out at 2.51 ± 0.16 under setting [3] and 2.69 ± 0.19 under setting [4].
Consider AIVRKCRQKGTGKEYAAKFIKKRR [DAPK3], for which the protein stability index is, setting by setting: under setting [3], 3.45 ± 0.24; under setting [4], 3.81 ± 0.32.
In the same order, the values of AIVSCTPVHLIDKLPLPVTIKSHL [RAB40C] are 2.18 ± 0.24 and 2.08 ± 0.19.
Regarding AKRLLDADDAAAVAAKCPRLSECS [TRIB1], the protein stability index reads like this: under setting [3], 4 ± 0.51; under setting [4], 4.11 ± 0.42.
Consider AKTFHLVNPNGQKQQLVDAFLKLA [FAN1], for which the protein stability index stood at 2 ± 0.36 under setting [3] and 2.05 ± 0.17 under setting [4].
For ALGNLVEGMDFHRFYFENLLAKNS [CAMK2B], the protein stability index was 2.19 ± 0.24 under setting [3] and 2.35 ± 0.079 under setting [4].
Taken in the same sequence, the figures for ALLNDHIYVVGGFDGTAHLSSVEA [KLHL12] were 2.68 ± 0.32 and 3 ± 0.38.
In the same order, the values of ALRAQRASSNVFSNFEQTQIQEFK [MYL5] are 4.07 ± 0.27 and 3.93 ± 0.23.
In the same order, the values of ALREENRMLSKENKILQVFWEEHK [CBY2] are 3.19 ± 0.12 and 3.28 ± 0.3.
Turning to AMAIINGSLYVFGGTTGYIYSTDL [KLHDC10], the protein stability index runs as follows: under setting [3], 3.16 ± 0.2; under setting [4], 2.74 ± 0.33.
Taken in the same sequence, the figures for ANAEDAQEFSDVERAIETLIKNFH [S100A14] were 3.39 ± 0.43 and 3.94 ± 0.74.
For the sequence APAGDKGFQPPSPSLRPRPASSIS [DMRTC1], the protein stability index was 4.61 ± 0.15 under setting [3] and 4.57 ± 0.26 under setting [4].
As to AQNDLDISRIKRGNTTLESTDTL [P2RY14], the protein stability index is, setting by setting: under setting [1], 5.26 ± 0.17; under setting [2], 5.25 ± 0.22.
AQTLHHKSCYNGRFQLLYVACGMV [DNAAF3]: the protein stability index by setting is: under setting [3], 2.94 ± 0.63; under setting [4], 2.39 ± 0.72.
For ARKGKGAFCNGQKLQVSQQEDITK [IMPA1], the protein stability index reads like this: under setting [3], 4.46 ± 0.18; under setting [4], 4.67 ± 0.18.
For the sequence ARPWTRDSASLPRKPSVPWQRQMD [RASAL3], the protein stability index runs as follows: under setting [3], 2.73 ± 0.22; under setting [4], 2.94 ± 0.42.
In the case of ARSRALRRRWCPAGIMLLALVCLL [SPACA3], the protein stability index turned out to be 2.23 ± 0.29 under setting [3] and 2.23 ± 0.19 under setting [4].
ASAPTTPCQKSPNGVRVFPPAMPP [TRIM9] displayed a protein stability index under setting [3] of 4.14 ± 0.25 and a protein stability index under setting [4] of 4.2 ± 0.17.
As for ASGSFPSQVTATSGNGDFGDWSAF [CLINT1], the protein stability index came out at 3.4 ± 0.23 under setting [3] and 3.87 ± 0.12 under setting [4].
As to ASSSRSVRTTRGKRKRVDVEESEA [LMNB1], the protein stability index under setting [3] is 5.22 ± 0.39 and the protein stability index under setting [4] came to 5.49 ± 0.29.
For the sequence ATIHGAIRLVCSRGNRLKTTSWGL [SCNN1D], the protein stability index under setting [3] amounted to 2.46 ± 0.7 and the protein stability index under setting [4] stood at 2.18 ± 0.24.
With AVKKFVESEDDPVVKKIALREIRM [CDKL4], the protein stability index runs as follows: under setting [3], 2.52 ± 0.25; under setting [4], 2.98 ± 0.26.
In the same order, the values of AVNSGGPLESIDHSVTGFLCEPDP [ALG2] are 4.82 ± 0.21 and 4.91 ± 0.22.
As for AVPHPPPSTPIKLEEGDGCAREYL [ADD1], the protein stability index by setting is: under setting [3], 4.16 ± 0.35; under setting [4], 4.42 ± 0.23.
As to AWLNYPCFKNWDGSPVSSWILLAE [OAS1], the protein stability index was determined as 2.58 ± 0.34 under setting [3] and 2.3 ± 0.23 under setting [4].
Sequence AYDFPSPEWDTVTPEAKDLINKML [CAMK2A] returned a protein stability index under setting [3] of 3.24 ± 0.24 and a protein stability index under setting [4] of 3.58 ± 0.34.
Sequence AYPLELQGQPDPAPRPGPPAGTPP [MOSPD3] came in with a protein stability index under setting [3] of 5.14 ± 0.23 and a protein stability index under setting [4] of 5.01 ± 0.14.
In the case of AYQHSGHLESKDINQEELRALEEV [C10orf62], the protein stability index reads like this: under setting [3], 5.41 ± 0.29; under setting [4], 5.4 ± 0.17.
Consider CAKLDSCALGDHGCEHSCVSSEDS [MATN2], for which the protein stability index stood at 4.91 ± 0.35 under setting [3] and 4.99 ± 0.38 under setting [4].
On to CDELELHQRFLREGRFWKSKNEDR [ZMYND11], for which the protein stability index is, setting by setting: under setting [3], 4.29 ± 0.17; under setting [4], 4.31 ± 0.36.
Taken in the same sequence, the figures for CDWLRATGFPQYAQLYEDFLFPID [DLC1] were 2.31 ± 0.45 and 2.26 ± 0.24.
As for CEVPTCSLCKVFGAHKDCQVAPLT [TRIM55], the protein stability index is, setting by setting: under setting [3], 3.58 ± 0.2; under setting [4], 3.7 ± 0.25.
For CFEASDCKESSPMPVICGPEENYP [NANOGP8], the protein stability index is, setting by setting: under setting [3], 3.98 ± 0.32; under setting [4], 4.24 ± 0.26.
Regarding CGSKACRRLFGPVDSEQLRRDCDA [CDKN1A], the protein stability index reads like this: under setting [3], 3.18 ± 0.2; under setting [4], 3.23 ± 0.093.
In the same order, the values of CIPATVRSSFANQGEICLCTSRIF [ALDH8A1] are 2.28 ± 0.52 and 2.38 ± 0.21.
Consider CLKVGMRREAVQRGRMPPTQPTHG [NR2F2], for which the protein stability index runs as follows: under setting [3], 3.59 ± 0.27; under setting [4], 3.71 ± 0.32.
Turning to CLRCWDQRTIMKPLEYQFKSQIMS [TLE6], the protein stability index under setting [3] amounted to 2.14 ± 0.27 and the protein stability index under setting [4] was 2.47 ± 0.48.
CPSSPKQIHLDVDNDRTTPSDLDS [DLC1]: the protein stability index is, setting by setting: under setting [3], 5.52 ± 0.1; under setting [4], 5.55 ± 0.14.
As for CRRSIRSALGRQRLQDISSLPLPQ [SPSB4], the protein stability index was 3.03 ± 0.38 under setting [3] and 3.33 ± 0.43 under setting [4].
Take CRYATQLQQIQGLIGGLEAQLSEL [KRT15]: the protein stability index runs as follows: under setting [3], 2.23 ± 0.066; under setting [4], 2.33 ± 0.18.
As to CSCQADPRHQGHRVQPVKDTAHDF [TRIM35], the protein stability index is, setting by setting: under setting [3], 3.42 ± 0.31; under setting [4], 3.56 ± 0.14.
On to CSITGDSSRVIAASYDKTVRAWDL [WDR88], for which the protein stability index came to 2.57 ± 0.2 under setting [3] and 2.6 ± 0.2 under setting [4].
For the sequence CTRFTDEYQLYEDIGKGAFSVVRR [CAMK2B], the protein stability index turned out to be 2.84 ± 0.35 under setting [3] and 2.85 ± 0.54 under setting [4].
Regarding DALPGQSKRLAVPCKLEKMRILAH [TLE6], the protein stability index is, setting by setting: under setting [3], 2.39 ± 0.18; under setting [4], 2.4 ± 0.24.
DCILRDTSEDLRLQCDAVNLAFGR [TEKT4] registered a protein stability index under setting [3] of 3.4 ± 0.13 and a protein stability index under setting [4] of 3.48 ± 0.19.
For the sequence DDDDNLPQLKKESELPFVPNYLAN [ANKRD40], the protein stability index is, setting by setting: under setting [3], 4.77 ± 0.12; under setting [4], 4.84 ± 0.076.
With DDEQYAWESSAGGSFTVRADHGEP [HSP90AB1], the protein stability index by setting is: under setting [3], 5.14 ± 0.29; under setting [4], 5.07 ± 0.12.
As to DDISVDSLDFTKKILHTAWHPAEN [PPP2R2C], the protein stability index turned out to be 3.12 ± 0.36 under setting [3] and 3.12 ± 0.49 under setting [4].
